Residue numbers refer to the chain shown, from its start. Values joined by “and” are separate entries in the source; they are usually repeats but may differ in a detail not shown here. Identical values can stand only once.
Columns and labels:
[1] = target: the molecule itself; experiment: SEC-MALS; proteins in isolation, 5-20 mg/ml; Superdex 200 Increase, 20 mM Tris pH 8.0, 150 mM KCl, 2 mM DTT
[2] = target: T1, SYCP1αNcore (amino-acids 206-362) (human, UniProt Q15431 206-362); experiment: ITC; SYCE3 (400 μM) injected into SYCP1αNcore (70 μM) at 30°C; 25 mM Tris pH 8.0, 250 mM KCl, 2 mM DTT; apparent affinity; settings: both partners purified
T1 construct: SYCP1 αNcore (tetrameric core), amino-acids 206-362; Tetramer alone (SEC-MALS); two chains in the 2:1 complex with SYCE3; also called SYCP1 tetrameric core; source: E. coli BL21(DE3), purified alone or co-expressed and co-purified with SYCE3 (amylose, TEV, anion exchange, SEC); not shown: MBP, N-terminal, cleaved
T1 sequence (looked up): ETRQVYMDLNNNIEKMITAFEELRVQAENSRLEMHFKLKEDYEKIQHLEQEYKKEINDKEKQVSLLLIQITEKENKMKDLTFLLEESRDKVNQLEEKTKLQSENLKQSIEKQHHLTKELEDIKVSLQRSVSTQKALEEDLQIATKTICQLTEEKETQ

SYCE2-TEX12core = target: T2, SYCE2-TEX12core (human, UniProt Q6PIF2 57-165; Q9BXU0 49-123, RED dye (Monolith NT Protein Labelling Kit RED) in the MST only; which chain not stated | RED dye (Monolith NT Protein Labelling Kit RED) in the MST only; which chain not stated); experiment: MST; SYCE3 titrated into 150 nM labelled SYCE2-TEX12core; Monolith NT.115, excitation and MST power 40 %; apparent affinity; settings: both partners purified
T2 construct: SYCE2 core; TEX12 core; Unlabelled in the SEC, labelled in the MST; source: E. coli BL21(DE3), purified
T2 sequence (looked up) 1: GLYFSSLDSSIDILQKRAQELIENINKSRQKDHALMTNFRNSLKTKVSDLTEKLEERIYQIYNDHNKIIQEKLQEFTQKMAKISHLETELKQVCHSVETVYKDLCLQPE
T2 sequence (looked up) 2: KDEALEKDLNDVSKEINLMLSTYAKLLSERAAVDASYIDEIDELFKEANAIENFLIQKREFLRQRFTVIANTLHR

[3] = target: T3, SYCP1 αCore-ΔNtip (amino-acids 112-783) (human, UniProt Q15431 112-783); experiment: SEC-MALS; co-expressed and co-purified SYCP1-SYCE3 complexes, 5-20 mg/ml; 20 mM Tris pH 8.0, 150 mM KCl, 2 mM DTT (Superose 6 Increase for MBP-SYCP1αN-His-SYCE3); settings: both partners purified
T3 construct: SYCP1 α-helical core without the αNtip, amino-acids 112-783; also called SYCP1's full α-helical core, in which αNtips were deleted; source: E. coli BL21(DE3), purified, alone or in complex with SYCE3
T3 sequence (looked up): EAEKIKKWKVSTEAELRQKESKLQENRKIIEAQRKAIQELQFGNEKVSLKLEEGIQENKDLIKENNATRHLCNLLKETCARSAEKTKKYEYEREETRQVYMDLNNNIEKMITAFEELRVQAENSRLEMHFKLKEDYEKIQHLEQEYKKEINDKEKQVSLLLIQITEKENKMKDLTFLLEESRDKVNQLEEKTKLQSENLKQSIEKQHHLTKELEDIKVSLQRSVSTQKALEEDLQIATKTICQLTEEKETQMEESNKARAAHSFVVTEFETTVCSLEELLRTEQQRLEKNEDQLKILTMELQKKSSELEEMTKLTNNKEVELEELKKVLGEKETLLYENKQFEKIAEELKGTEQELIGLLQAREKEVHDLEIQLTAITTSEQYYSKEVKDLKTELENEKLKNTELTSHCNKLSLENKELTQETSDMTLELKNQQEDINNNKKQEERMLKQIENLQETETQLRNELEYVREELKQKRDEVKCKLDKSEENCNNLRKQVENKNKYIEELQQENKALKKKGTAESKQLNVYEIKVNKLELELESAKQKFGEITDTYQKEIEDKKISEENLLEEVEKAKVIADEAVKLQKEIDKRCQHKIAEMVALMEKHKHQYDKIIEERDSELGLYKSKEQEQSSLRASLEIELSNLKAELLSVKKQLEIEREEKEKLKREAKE

[4] = target: T4, SYCP1αN (amino-acids 101-362) (human, UniProt Q15431 101-362); experiment: as above; settings: both partners purified
T4 construct: SYCP1 α-helical N-terminal region, amino-acids 101-362; source: E. coli BL21(DE3), purified, alone or co-expressed and co-purified with SYCE3
T4 sequence (looked up): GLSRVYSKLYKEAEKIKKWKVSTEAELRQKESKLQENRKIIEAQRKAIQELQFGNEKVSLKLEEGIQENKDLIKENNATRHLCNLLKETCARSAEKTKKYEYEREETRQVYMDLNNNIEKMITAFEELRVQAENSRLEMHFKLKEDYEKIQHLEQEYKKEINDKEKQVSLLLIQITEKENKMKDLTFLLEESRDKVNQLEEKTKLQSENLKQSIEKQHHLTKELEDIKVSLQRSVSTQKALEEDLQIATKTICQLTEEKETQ

SYCP1αN ΔNtip = target: T5, SYCP1αN ΔNtip (human, UniProt Q15431 112-362); experiment: as above; settings: both partners purified
T5 construct: SYCP1αN (101-362) with the αNtip (101-111) deleted; also called SYCP1 ΔNtip; source: E. coli BL21(DE3), co-purified with SYCE3
T5 sequence (looked up): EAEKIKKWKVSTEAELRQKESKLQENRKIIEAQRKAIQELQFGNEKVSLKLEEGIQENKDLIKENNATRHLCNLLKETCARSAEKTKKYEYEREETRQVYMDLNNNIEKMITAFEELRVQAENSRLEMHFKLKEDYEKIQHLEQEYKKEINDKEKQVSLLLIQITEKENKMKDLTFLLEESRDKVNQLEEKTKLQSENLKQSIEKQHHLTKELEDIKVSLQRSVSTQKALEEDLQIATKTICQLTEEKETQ

SYCP1αN V105E L109E = target: T6, SYCP1αN V105E L109E (human, UniProt Q15431 101-362, V105E | L109E); experiment: as above; settings: both partners purified
T6 construct: SYCP1αN, amino-acids 101-362, with V105E L109E; source: E. coli BL21(DE3), in complex with SYCE3
T6 sequence (looked up): T4 sequence (looked up) with V5E, L9E

[5] = target: T1, SYCP1αNcore (amino-acids 206-362); experiment: as above; settings: both partners purified

Kd [2]: 170 nM | apparent KD of one replicate [2]: 230 nM and 120 nM and 160 nM | Kd (SYCE2-TEX12core): 21800 nM | stoichiometry N [3]: 2 SYCP1 chains per SYCE3 chain | stoichiometry N (SYCP1αN ΔNtip): 2 SYCP1 chains per SYCE3 chain | stoichiometry N (SYCP1αN V105E L109E): 2 SYCP1 chains per SYCE3 chain | stoichiometry N [5]: 2 SYCP1 chains per SYCE3 chain
B1: SYCE3 (natural protein, human, UniProt A1L190 1-88, looked up)
chain: MDDADPEERNYDNMLKMLSDLNKDLEKLLEEMEKISVQATWMAYDMVVMRTNPTLAESMRRLEDAFVNCKEEMEKNWQELLHETKQRL
notes: SYCE3 without a stated truncation; Dimer alone (SEC-MALS); one chain in the 2:1 complex with SYCP1; also called SYCE3 wild-type; free SYCE3; source: E. coli BL21(DE3), purified (Ni-NTA or amylose, TEV, anion exchange, SEC), alone or co-purified with SYCP1 constructs; not shown: His or His-MBP, N-terminal, cleaved
stoichiometry N [1]: 2 | stoichiometry N [4]: 2 SYCP1 chains per SYCE3 chain (2:1) and 4 SYCP1 chains with 2 SYCE3 chains (4:2)

From publication PMC7614228, “Structural maturation of SYCP1-mediated meiotic chromosome synapsis by SYCE3” (Nature structural & molecular biology, 2023)
